The chains are these.
B1: parkin Ubl domain (domain or fragment, human, UniProt O60260 1-76, looked up)
chain: MIVFVRFNSSHGFPVEVDSDTSIFQLKEVVAKRQGVPADQLRVIFAGKELRNDWTVQNCDLDQQSIVHIVQRPWRK
B2: R0RBR parkin (residues 141–465, lacking Ubl domain and linker) (domain or fragment, human, UniProt O60260 141-465, looked up)
chain: SIYNSFYVYCKGPCQRVQPGKLRVQCSTCRQATLTLTQGPSCWDDVLIPNRMSGECQSPHCPGTSAEFFFKCGAHPTSDKETSVALHLIATNSRNITCITCTDVRSPVLVFQCNSRHVICLDCFHLYCVTRLNDRQFVHDPQLGYSLPCVAGCPNSLIKELHHFRILGEEQYNRYQQYGAEECVLQMGGVLCPRPGCGAGLLPEPDQRKVTCEGGNGLGCGFAFCRECKEAYHEGECSAVFEASGTTTQAYRVDERAAEQARWEAASKETIKKTTKPCPRCHVPVEKNGGCMHMKCPQPQCRLEWCWNCGCEWNRVCMGDHWFDV

Holding throughout (test): ITC; 50 μM R0RBR, full-length parkin or phosphoparkin titrated with Ub, Ubl or their variants; 25°C; 50 mM HEPES, 50 mM NaCl, 250 μM TCEP pH 7.5 or 50 mM HEPES, 150 mM NaCl, 0.5 mM TCEP pH 8.0; single-site model
What all share (details): both partners purified
Background: ITC needs no label: the signal is the heat of the interaction.

In experiment [1] the target is B2.
Experiment [2] addresses phosphoubiquitin (UniProt P0CG47 1-76, phosphoserine at 65).
For experiment [3], the target named is ubiquitin (UniProt P0CG47 1-76).

What is called Kd is the free concentration of one partner at which half of the binding sites on the other are occupied at equilibrium, for simple one-to-one binding. Higher therefore signals weaker binding. What is called stoichiometry N is a count of units in the complex or per binding partner. As for B1, in experiment [1], binding was put at a Kd of 3.8 ± 1.3 µM, the dH is -10.5 ± 0.717 kcal/mol and the “stoichiometry N” value was found to be 0.98.

With B2, the dissociation constant (Kd) in experiment [2] is 0.016 ± 0.002 µM; in experiment [3] it was 67 ± 1 µM.

Values taken from PMC4609183 (The EMBO Journal, 2015).
